Results: patent US20260103529A1, “Amino Acid Sequences Directed Against the Melanocortin 4 Receptor and Polypeptides Comprising the Same for the Treatment of MC4R-Related Diseases and Disorders” (Confo Therapeutics N.V., priority 2022, published 2026)
Read-outs that look alike come from different tables or passages of the source.

Assays:
human wild type MC1R = biological target: T1, human wild type MC1R (Homo sapiens, UniProt Q01726); assay: cAMP GloSensor assay, MC1R; type: cell-based
T1 construct: expressed in transfected cells; host or cells: HEK293 / HEK 293T, pcDNA3.1(+)
T1 sequence (Q01726 whole entry): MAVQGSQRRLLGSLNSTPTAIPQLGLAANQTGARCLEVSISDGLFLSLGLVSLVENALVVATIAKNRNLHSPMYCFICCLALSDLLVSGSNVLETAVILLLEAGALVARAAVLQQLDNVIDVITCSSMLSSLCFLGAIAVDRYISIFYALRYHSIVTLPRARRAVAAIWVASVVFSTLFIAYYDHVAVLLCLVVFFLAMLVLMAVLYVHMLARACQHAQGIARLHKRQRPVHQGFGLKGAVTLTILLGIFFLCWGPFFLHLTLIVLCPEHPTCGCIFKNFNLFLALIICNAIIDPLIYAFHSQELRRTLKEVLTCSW

human wild type MC3R = biological target: T2, human wild type MC3R (Homo sapiens, UniProt P41968); assay: cAMP GloSensor assay, MC3R; type: cell-based
T2 construct: expressed in transfected cells; host or cells: HEK293 / HEK 293T, pcDNA3.1(+)
T2 sequence (P41968 whole entry): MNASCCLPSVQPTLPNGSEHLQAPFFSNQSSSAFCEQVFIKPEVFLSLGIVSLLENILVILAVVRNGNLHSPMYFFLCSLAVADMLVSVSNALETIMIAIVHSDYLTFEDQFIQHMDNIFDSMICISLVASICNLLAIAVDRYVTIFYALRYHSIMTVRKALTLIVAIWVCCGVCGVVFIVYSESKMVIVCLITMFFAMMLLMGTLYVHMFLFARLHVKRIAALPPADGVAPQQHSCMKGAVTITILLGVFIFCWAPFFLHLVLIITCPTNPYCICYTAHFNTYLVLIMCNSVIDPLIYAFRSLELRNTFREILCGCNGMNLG

human MC4R = biological target: T3, human MC4R (Homo sapiens, UniProt P32245); assay: Flow cytometry binding to Flag-tagged receptor in HEK293T cells, MC4R; details: 1 μM
T3 construct: Flag; expressed in transfected cells; host or cells: HEK293T
T3 sequence (P32245 whole entry): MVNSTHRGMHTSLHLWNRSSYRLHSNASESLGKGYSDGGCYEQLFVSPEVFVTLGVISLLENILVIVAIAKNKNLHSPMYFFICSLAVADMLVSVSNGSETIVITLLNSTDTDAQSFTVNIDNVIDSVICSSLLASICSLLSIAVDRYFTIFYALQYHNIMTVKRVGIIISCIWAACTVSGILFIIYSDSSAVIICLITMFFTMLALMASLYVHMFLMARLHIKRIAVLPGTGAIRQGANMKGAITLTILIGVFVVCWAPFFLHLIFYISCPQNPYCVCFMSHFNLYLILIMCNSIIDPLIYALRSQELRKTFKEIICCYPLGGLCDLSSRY
Experimental: (§1) To confirm MC4R activation, dose-dependent nanobody-induced cAMP signaling was assessed (Lance Ultra HTRF). […] Binding of pN162 to the human melanocortin receptor subtypes MC1R, MC2R, MC3R, MC4R or MC5R transiently expressed as Flag-tagged receptors in HEK293T cells was assessed by flow cytometry.

human MC1R = biological target: T4, human MC1R (Homo sapiens, UniProt Q01726); assay: Flow cytometry binding to Flag-tagged receptor in HEK293T cells, MC1R; details: 1 μM
T4 construct: Flag; expressed in transfected cells; host or cells: HEK293T
T4 sequence (Q01726 whole entry): as the sequence (Q01726 whole entry) above
Experimental: as §1

human MC2R = biological target: T5, human MC2R (Homo sapiens, UniProt Q01718); assay: Flow cytometry binding to Flag-tagged receptor in HEK293T cells, MC2R; details: 1 μM
T5 construct: Flag; expressed in transfected cells; host or cells: HEK293T
T5 sequence (Q01718 whole entry): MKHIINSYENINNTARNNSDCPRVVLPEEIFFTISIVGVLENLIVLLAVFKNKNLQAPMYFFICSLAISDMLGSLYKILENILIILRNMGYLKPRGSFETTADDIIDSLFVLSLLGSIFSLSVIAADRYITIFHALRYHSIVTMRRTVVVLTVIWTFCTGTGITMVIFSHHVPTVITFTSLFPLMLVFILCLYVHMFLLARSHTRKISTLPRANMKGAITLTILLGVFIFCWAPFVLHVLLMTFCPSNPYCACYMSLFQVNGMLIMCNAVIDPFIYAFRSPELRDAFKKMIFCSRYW
Experimental: as §1

WT human MC4R = biological target: T6, WT human MC4R (Homo sapiens, UniProt P32245); assay: Gs ConfoSensor recruitment assay; type: cell-based; details: for EC50: WT human MC4R-expressing HEK293T cells
T6 construct: Flag (N); expressed in transfected cells; host or cells: HEK293T
T6 sequence (P32245 whole entry): as the sequence (P32245 whole entry) above

DIO mice = assay: Diet-induced obese (DIO) mouse study, acute setting, ICV administration; type: in vivo
Experimental: The mouse studies described in Examples 2 and 3 were performed at a fully AAALAC accredited unit (Gubra, Denmark), and all animal experiments were conducted in accordance with the CRO's bioethical guidelines, which are fully compliant to internationally accepted principles for the care and use of laboratory animals. All experiments were licensed by the Danish Animal Experimentation Council. This animal model is based on male C57BI/6J mice that are fed for a minimum of 18 weeks a 60% high fat diet that result in rapid weight gain. The mice were obtained from commercial vendors in Europe and United States transferred to Gubra's animal unit. The animal room environment is controlled (targeted ranges: temperature 21±2° C.; relative humidity 50±10%). The animals are maintained on a reversed 12 h light/dark cycle and have access to plenty of bedding material, shelters and chewing sticks. Animals were dosed just before lights went off.
Male DIO mice (5 weeks of age at time of arrival and HF diet induction, 46 weeks of age at study start, n=50) had ad libitum access to 60% high fat diet (D12492, Research diets) and water. The DIO mice were acclimatized to an automated real-time food intake monitoring system (MoNI system) individually housed in the system for 14 days prior to study start. The animals went through ICV cannulation on study day −6/−5 and on study day−1, animals were randomized into 5 treatment groups (n=8 per group) based on body weight (PM, day−2).

[1] = tested on: highly pigmented normal human epidermal melanocytes (NHEM-HP); assay: In vitro pigmentation assay, melanin synthesis, 2D NHEM highly pigmented; type: cell-based; details: 10 μM, 10 days
Experimental: (§2) Highly and moderately pigmented melanocytes were seeded in 24-well plates and cultured in culture medium for 24 hours. The medium was then replaced by culture medium containing or not (control) the test compounds or the reference compounds (L-tyrosine at 1 mM, IBMX at 100 and 200 μM and NDP-MSH at 10 μM). The cells were then incubated for 10 days with treatment renewal at day 3 and day 7. All experimental conditions were performed in n=3. At the end of the incubation time, the culture supernatants were removed, and melanin was extracted by cell lysis using a 0.5 N NaOH solution. The optical density (OD) of each experimental point was measured at 405 nm and melanin quantity was determined according to melanin standard curve (standard curve ranging from 0.39 to 100 μg/ml). The results were expressed in μg/ml of melanin. […] NHEM-HP response to L-tyrosine and NDP-MSH was stronger than in NHEM-MP while IBMX induced a stronger response in the NHEM-MP.

[2] = tested on: moderately pigmented normal human epidermal melanocytes (NHEM-MP); assay: In vitro pigmentation assay, melanin synthesis, 2D NHEM moderately pigmented; type: cell-based; details: 10 days
Experimental: as §2

human wild type MC4R = human wild type MC4R (Homo sapiens, UniProt P32245); assay: cAMP GloSensor assay, MC4R; type: cell-based; parameters: Flag; expressed in transfected cells; host or cells: HEK293T
Chain of human wild type MC4R (P32245 whole entry): as above
Experimental: as §1
HEK 293T cells were routinely maintained at 37° C., 5% CO2, under humidified atmosphere in Dulbecco's modified Eagle's medium (DMEM, Gibco, cat. no. 41966-029) supplemented with 10% heat-inactivated fetal bovine serum. In preparation of the experiments, cells were plated on poly-L-lysine coated white 96-well plates (Costar: 3917) at the density of 3,00E+04 cells/well. At the moment of seeding, cells were transfected with 25 ng of human MC4R in pcDNA3.1 (+) and 50 ng of p22F GLoSensor plasmid (Promega Corporation), empty pcDNA3.1 (+) vector was added to obtain 100 ng of total DNA, using XtremeGene HP (Roche). To evaluate cross-reactivity of different VHHs for other melanocortin receptors, cells were additionally transfected with 50 ng of DNA encoding one of the three melanocortin receptors MC1R/MC3R/MC5R in pcDNA3.1 (+) and 50 ng of p22F GLoSensor plasmid (Promega Corporation), using XtremeGene HP (Roche). After 24 h post transfection, growing medium was gently removed from the cells and replaced with 90 μl/well of Assay medium (OptiMEM media containing 10% FBS HI with 2% GloSensor reagent (Promega)) in which cells were incubated for 2 h at room temperature in the dark. Next, background luminescence level was recorded using the En Vision 2104 Multilabel Plate Reader (Perkin Elmer). Samples (purified VHH produced in E. coli and/or mammalian cells with or without FC fusion) or benchmark compounds were prepared at 10× working concentration in OptiMEM containing 10% heat-inactivated Fetal Bovine Serum (FBS). After addition of 10 μl of samples luminescence was recorded in a kinetic mode using the En Vision 2104 Multilabel Plate Reader (Perkin Elmer). Data were analyzed using GraphPad Prism 8 by applying nonlinear regression (curve fit).

[3] = GloSensor head-to-head receptor subtype comparison
[4] = pN162 0.5 and 5 nmol ICV on day 0 and day 2, study day 4

B1: pN162: agonistic anti-MC4R VHH, SEQ ID NO: 184; parental clone for potency maturation (protein)
VHH: QVQLVESGGGLVQPGGSLRLSCAASGSAFSLNVMGWYRQTPGNQRALVAEITKDGSTNYADSAKGRFTISRDNAKNTVHLQMDSLKPEDTAVYYCKARTGRIVRPLDYWGQGTQVTVSS
modifications: pN0162
For B1, the “detectable cAMP signaling, MC1R” value (human wild type MC1R; [3]) was “only induced detectable signaling on MC4R”, the “cAMP potency (EC50) MC1R” value (human wild type MC1R; GloSensor, average EC50, human MC1R) was “No effect” and the “detectable cAMP signaling, MC3R” value (human wild type MC3R; [3]) was “only induced detectable signaling on MC4R”. For the same molecule, the “cAMP potency (EC50) MC3R” value (human wild type MC3R; GloSensor, average EC50, human MC3R) was “No effect”, the “binding to MC4R by flow cytometry” value (human MC4R) was “only demonstrated for MC4R” and the “binding to MC1R by flow cytometry” value (human MC1R) was “No binding could be detected”. For the same molecule, the “binding to MC2R by flow cytometry” value (human MC2R) was “No binding could be detected”, the Gs recruitment (WT human MC4R; Flag-tagged WT human MC4R HEK293T cells) was “dose-dependently recruits” and the EC50 (WT human MC4R; No Ca^2+, read-out: Gs ConfoSensor No Ca^2+ (EC50)) was 8.5 ± 2.1 nM. For the same molecule, the “dependence of Gs recruitment on Ca2+ ions” value (WT human MC4R; absence vs presence of 1 mM Ca2+) was “independent of Ca^2+ ions”, the EC50 (WT human MC4R; read-out: Gs ConfoSensor 1 mM Ca^2+ (EC50), 1 mM Ca^2+) was 12 ± 5 nM and the “cumulative food intake after first dose” value (DIO mice; pN162 0.5 and 5 nmol ICV) was “reduced by pN162 in a dose-dependent manner”. The “cumulative food intake compared to vehicle” value (DIO mice; [4]) was “reduced”, the “relative body weight compared to vehicle” value (DIO mice; [4]) was “reduced” and the melanin synthesis [1] was 89 % of the control. The “modulation of melanin synthesis” value [2] was “did not modulate”, the “reduced potency in cAMP signaling via human MC4R compared to setmelanotide” value (human wild type MC4R; GloSensor) was 6.7 fold and the “detectable cAMP signaling, MC4R” value (human wild type MC4R; [3]) was “only induced detectable signaling on MC4R”. The “potency ranking among agonistic nanobodies” value (human wild type MC4R; GloSensor, Flag-tagged human wild type MC4R HEK293T cells) was “most potent full agonist nanobody”, the EC50 (human wild type MC4R; Promega GloSensor, HEK293 transiently transfected, real-time, read-out: cAMP assay (GloSensor)) was 8.4 ± 3.29 nM and the EC50 (human wild type MC4R; human wild type MC4R in HEK293T cells, read-out: average EC50, real-time cAMP monitoring (GloSensor), MC4R) was 13.2 ± 5.6 nM.
